Experimental findings from article PMC4596520 are described below.

What all share (test): SPR
What all share (settings): read off a plot

Test [1] deals with hexa-His-tagged recombinant soluble human Fcγ receptor I (UniProt P12314).
The target in test [2] is hexa-His-tagged recombinant soluble human Fcγ receptor IIIa, 158F (UniProt P08637).
Test [3] deals with hexa-His-tagged recombinant soluble human Fcγ receptor IIa, 134R (UniProt P12318).
Sequence of UniProt P12318 (P12318 34-217 H167R): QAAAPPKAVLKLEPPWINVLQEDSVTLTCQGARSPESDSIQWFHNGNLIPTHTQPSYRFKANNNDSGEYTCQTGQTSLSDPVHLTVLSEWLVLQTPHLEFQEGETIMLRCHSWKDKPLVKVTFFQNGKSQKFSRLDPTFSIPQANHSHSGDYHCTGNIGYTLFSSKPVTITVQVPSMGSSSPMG

Sequence of UniProt P12314 (P12314 16-292): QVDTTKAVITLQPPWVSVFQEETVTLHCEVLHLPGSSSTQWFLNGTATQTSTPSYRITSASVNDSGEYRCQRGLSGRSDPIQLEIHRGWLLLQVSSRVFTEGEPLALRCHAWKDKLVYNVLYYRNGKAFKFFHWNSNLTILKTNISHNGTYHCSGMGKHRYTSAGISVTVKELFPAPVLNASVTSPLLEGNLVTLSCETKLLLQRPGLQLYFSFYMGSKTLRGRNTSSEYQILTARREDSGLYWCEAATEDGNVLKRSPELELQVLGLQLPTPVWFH
Sequence of UniProt P08637 (P08637 17-208): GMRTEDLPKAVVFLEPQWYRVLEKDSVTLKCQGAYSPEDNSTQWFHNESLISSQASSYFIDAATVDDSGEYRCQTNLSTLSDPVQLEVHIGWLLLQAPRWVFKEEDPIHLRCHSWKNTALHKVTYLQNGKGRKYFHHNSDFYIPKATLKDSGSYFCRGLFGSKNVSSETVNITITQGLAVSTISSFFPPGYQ

Turning to “nonfucosylated anti-CD20 chimeric IgG1 rituximab with a wild-type Fc region Y296P”, in test [1] (parent: est. 2.3), the Kd (commonly the free concentration of one partner at which half of the binding sites on the other are occupied at equilibrium, for simple one-to-one binding) is 7.4 ×10^-8 M.
In the case of “nonfucosylated anti-CD20 chimeric IgG1 rituximab with a wild-type Fc region Y296E”, the dissociation constant Kd in test [1] (parent: est. 2.3) is 2.7 ×10^-8 M; in test [2] (parent: est. 5.0), 9 ×10^-7 M.
As for “nonfucosylated anti-CD20 chimeric IgG1 rituximab with a wild-type Fc region Y296T”, the values for the Kd in test [1] (parent: est. 2.3), in test [2] (parent: est. 5.0) and in test [3] (parent: est. 12) were 3 ×10^-8 M, 10 ×10^-7 M and 9.6 ×10^-7 M, respectively.
Turning to “fucosylated anti-CD20 chimeric IgG1 rituximab with a wild-type Fc region Y296L”, the Kd in test [1] (parent: est. 11) is 11 ×10^-8 M; in test [3] (parent: est. 18), 9 ×10^-7 M.
Take “fucosylated anti-CD20 chimeric IgG1 rituximab with a wild-type Fc region Y296P”: in test [1] (parent: est. 11), the Kd was 18 ×10^-8 M.
Regarding “fucosylated anti-CD20 chimeric IgG1 rituximab with a wild-type Fc region Y296I”, the Kd in test [1] (parent: est. 11) is 10 ×10^-8 M; in test [3] (parent: est. 18), 12 ×10^-7 M.
As for “nonfucosylated anti-CD20 chimeric IgG1 rituximab with a wild-type Fc region Y296R”, the Kd is 3.3 ×10^-8 M in test [1] (parent: est. 2.3) and 10 ×10^-7 M in test [3] (parent: est. 12).
On to “fucosylated anti-CD20 chimeric IgG1 rituximab with a wild-type Fc region Y296Q”, for which the results for the Kd in test [1] (parent: est. 11), in test [2] (parent: est. 17) and in test [3] (parent: est. 18) were 9.6 ×10^-8 M, 27 ×10^-7 M and 11 ×10^-7 M, respectively.
Regarding “nonfucosylated anti-CD20 chimeric IgG1 rituximab with a wild-type Fc region Y296F”, the dissociation constant (Kd) in test [1] (parent: est. 2.3) was 2.6 ×10^-8 M; in test [2] (parent: est. 5.0), 6 ×10^-7 M; in test [3] (parent: est. 12), 9.8 ×10^-7 M.
“fucosylated anti-CD20 chimeric IgG1 rituximab with a wild-type Fc region Y296T”: the Kd in test [1] (parent: est. 11) is 12 ×10^-8 M; in test [2] (parent: est. 17), 32 ×10^-7 M; in test [3] (parent: est. 18), 12 ×10^-7 M.
Consider “fucosylated anti-CD20 chimeric IgG1 rituximab with a wild-type Fc region Y296G”, for which the values for the dissociation constant Kd in test [1] (parent: est. 11), in test [2] (parent: est. 17) and in test [3] (parent: est. 18) were 14 ×10^-8 M, 56 ×10^-7 M and 13 ×10^-7 M, respectively.
In the case of “nonfucosylated anti-CD20 chimeric IgG1 rituximab with a wild-type Fc region Y296N”, the Kd in test [1] (parent: est. 2.3) is 3.2 ×10^-8 M; in test [2] (parent: est. 5.0), 8 ×10^-7 M; in test [3] (parent: est. 12), 11 ×10^-7 M.
Turning to “nonfucosylated anti-CD20 chimeric IgG1 rituximab with a wild-type Fc region Y296I”, the Kd in test [1] (parent: est. 2.3) was 3.2 ×10^-8 M; in test [2] (parent: est. 5.0), 9.5 ×10^-7 M; in test [3] (parent: est. 12), 10 ×10^-7 M.
Consider “fucosylated anti-CD20 chimeric IgG1 rituximab with a wild-type Fc region Y296V”, for which the Kd was 10 ×10^-8 M in test [1] (parent: est. 11) and 14 ×10^-7 M in test [3] (parent: est. 18).
Take “nonfucosylated anti-CD20 chimeric IgG1 rituximab with a wild-type Fc region Y296V”: the Kd in test [1] (parent: est. 2.3) was 3 ×10^-8 M; in test [2] (parent: est. 5.0), 9 ×10^-7 M; in test [3] (parent: est. 12), 11 ×10^-7 M.
As for “nonfucosylated anti-CD20 chimeric IgG1 rituximab with a wild-type Fc region Y296L”, the equilibrium dissociation constant (Kd) in test [1] (parent: est. 2.3) is 2.8 ×10^-8 M; in test [2] (parent: est. 5.0), 10 ×10^-7 M; in test [3] (parent: est. 12), 11 ×10^-7 M.
As to “fucosylated anti-CD20 chimeric IgG1 rituximab with a wild-type Fc region Y296E”, the Kd in test [1] (parent: est. 11) was 12 ×10^-8 M; in test [2] (parent: est. 17), 20 ×10^-7 M; in test [3] (parent: est. 18), 11 ×10^-7 M.
As for “fucosylated anti-CD20 chimeric IgG1 rituximab with a wild-type Fc region Y296M”, the Kd in test [1] (parent: est. 11) is 10 ×10^-8 M; in test [3] (parent: est. 18), 13 ×10^-7 M.
Consider “fucosylated anti-CD20 chimeric IgG1 rituximab with a wild-type Fc region Y296H”, for which the Kd in test [1] (parent: est. 11) is 11 ×10^-8 M; in test [3] (parent: est. 18), 11 ×10^-7 M.
Consider “nonfucosylated anti-CD20 chimeric IgG1 rituximab with a wild-type Fc region Y296C”, for which the values for the Kd in test [1] (parent: est. 2.3), in test [2] (parent: est. 5.0) and in test [3] (parent: est. 12) were 3.3 ×10^-8 M, 6.5 ×10^-7 M and 8 ×10^-7 M, respectively.
For “nonfucosylated anti-CD20 chimeric IgG1 rituximab with a wild-type Fc region Y296M” the same measures were 3.2 ×10^-8 M, 9.5 ×10^-7 M and 11 ×10^-7 M.
“fucosylated anti-CD20 chimeric IgG1 rituximab with a wild-type Fc region Y296N”: the Kd in test [1] (parent: est. 11) was 10 ×10^-8 M; in test [3] (parent: est. 18) it was 12 ×10^-7 M.
For “fucosylated anti-CD20 chimeric IgG1 rituximab with a wild-type Fc region Y296D”, the Kd in test [1] (parent: est. 11) is 11 ×10^-8 M; in test [2] (parent: est. 17) it was 17 ×10^-7 M; in test [3] (parent: est. 18), 12 ×10^-7 M.
Take “nonfucosylated anti-CD20 chimeric IgG1 rituximab with a wild-type Fc region Y296H”: the results for the dissociation constant (Kd) in test [1] (parent: est. 2.3), in test [2] (parent: est. 5.0) and in test [3] (parent: est. 12) were 3 ×10^-8 M, 6.5 ×10^-7 M and 7.5 ×10^-7 M, respectively.
On the same counts, the results for “nonfucosylated anti-CD20 chimeric IgG1 rituximab with a wild-type Fc region Y296D” are 2.7 ×10^-8 M, 6 ×10^-7 M and 9.5 ×10^-7 M.
With “fucosylated anti-CD20 chimeric IgG1 rituximab with a wild-type Fc region Y296C”, the equilibrium dissociation constant (Kd) in test [1] (parent: est. 11) was 9.8 ×10^-8 M; in test [2] (parent: est. 17), 17 ×10^-7 M; in test [3] (parent: est. 18) it was 10 ×10^-7 M.
Turning to “nonfucosylated anti-CD20 chimeric IgG1 rituximab with a wild-type Fc region Y296Q”, the Kd in test [1] (parent: est. 2.3) was 3.2 ×10^-8 M; in test [2] (parent: est. 5.0) it was 10 ×10^-7 M; in test [3] (parent: est. 12) it was 11 ×10^-7 M.
“fucosylated anti-CD20 chimeric IgG1 rituximab with a wild-type Fc region Y296S”: the Kd in test [1] (parent: est. 11) is 10 ×10^-8 M; in test [2] (parent: est. 17) it was 30 ×10^-7 M; in test [3] (parent: est. 18), 13 ×10^-7 M.
For “nonfucosylated anti-CD20 chimeric IgG1 rituximab with a wild-type Fc region Y296S”, the Kd was 3.4 ×10^-8 M in test [1] (parent: est. 2.3), 11 ×10^-7 M in test [2] (parent: est. 5.0) and 9.2 ×10^-7 M in test [3] (parent: est. 12).
Take “fucosylated anti-CD20 chimeric IgG1 rituximab with a wild-type Fc region Y296F”: the dissociation constant Kd in test [1] (parent: est. 11) is 11 ×10^-8 M; in test [2] (parent: est. 17), 21 ×10^-7 M; in test [3] (parent: est. 18), 9.5 ×10^-7 M.
For “fucosylated anti-CD20 chimeric IgG1 rituximab with a wild-type Fc region Y296R” the same measures were 10 ×10^-8 M, 41 ×10^-7 M and 12 ×10^-7 M.
